From PMC9910501 come the findings set out here.

This assay concerns the target OsASI1-BAH (residues 19 to 183) (rice). Kind of assay: ITC. On the technique in general: Isothermal titration calorimetry measures the heat released or taken up as one component is titrated into another.

A word on the Kd: it is the constant that tells how readily two partners part at equilibrium. High values mean a looser complex, low ones a tighter complex. Take “OsSUVH6 N-terminal peptide (OsSUVH6N, residues 287 to 304)”: the Kd is 184 nM.
